Data taken from patent US20170360796A1, “BTK INHIBITOR COMBINATIONS AND DOSING REGIMEN” (PHARMACYCLICS LLC, priority 2014, published 2017).

How the values were obtained:
[1] = tested on: B-cell lines including CLL cells; conditions: compared with rituximab; cited from earlier work
[2] = tested on: patients with relapsed/refractory CLL and related diseases; experiment: Phase 1b/2 study of ibrutinib combined with ofatumumab (NCT01217749): efficacy; assay type: in vivo, human; conditions: group 3, ofatumumab lead-in before initiating ibrutinib
From the text: Key eligibility criteria also included failure of ≧2 prior therapies including a nucleoside analogue (unless contraindicated); ≧10% expression of CD20 on CLL/SLL cells by flow cytometry; ECOG performance status ≦2; and adequate end-organ function.
This phase 1 b/2, single-center, open-label, sequential-group study was approved by the institutional review board and conducted in accordance with the principles of the Declaration of Helsinki and the International Conference on Harmonization Guidelines for Good Clinical Practice.

[3] = tested on: patients with relapsed/refractory CLL; conditions: single agent; cited from earlier work

## ofatumumab: anti-CD20 monoclonal antibody that binds to an epitope distinct from that for rituximab
[1]
  complement-dependent cytotoxicity and NK-cell ADCC: more potent
[2]
  patients who progressed (PD) on ofatumumab monotherapy: 17%
[3]
  Major bleeding events ≧ grade 3: 1.6%
  peripheral sensory neuropathy (grade 1 and 2): 13%
